The nanobody polyreactivity screen of Harvey et al. (2022)

Assay: yeast display, Sf9 membrane polyspecificity reagent, FACS + sequencing; frameworks hold sequencing errors
In short: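 Synthetic nanobody libraries on Saccharomyces cerevisiae BJ5465 were galactose-induced for 36–48 hours, stained 1 hour at 4 °C with 10% biotinylated, detergent-solubilized Sf9 membrane reagent and enriched on streptavidin microbeads. FACS then separated cells into low and high (top ~1%) gates by anti-HA (expression) and streptavidin (reagent binding) fluorescence. Genes were colony-PCR amplified, MiSeq 2 × 250 sequenced and CDR-length filtered. A clone's polyreactivity label is that of its gate of origin.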

Sequence | polyreactivity (PSR sort gate)
QVQLVESGGGLVQAGGSLRLSCAASGSTFKPYTMGWYRQAPGKERELVAGISSVDSTDYADSVKGRFTISRDNAKNTVYLQMNSLKPEDTAVYYCNKRKWPTFTYAMNYWGQGTQVSVSS | low polyreactivity
QVQLVESGGGLVQAGGSLRLSCAASGFTFARYTMGWYRQAPGKERELVAAISSRGSSTYYADSVKGRFTISRDNAKNTVYLQMNSLKPEDTAVYYCAASPYDTQTLDYAYWGQGTQVTVSS | high polyreactivity
QVQLVESGGGLVQAGGSHRLSCAAYGSIFATNAMGWYRQAPGKERELVASISYSVSRTYYADSVKGRFTISRDNSMNTVYLQMNSMKPEDTAFYYSAVRQVNWFGIGYEDDYWGQGTQVTVSS | low polyreactivity
QDQLVESGGGLVQAGGSLRLSCAASGRTFTGYTMGWYRQAPGKERELVASISSSGGRTYYADSVKGRFTISRDNAKNTVFLQMKSLKPEDTAVYYCAKRGAYGYGYYSYDYWGQGTQVTVSS | high polyreactivity
QVQLVESGGGLVQAGGSLRLSCAASGLIFSSYAMGWYRQAPGKERELVAAISRSGGRTYYADSVKGRFTISRDNAKNTVYLQMNSLKPEDTAVYYCAADRFRSGLDRPEMDYWGQGTQVTVSS | high polyreactivity
QVQLVESGGGLVQAGGSLRLSCAASGFTFYFYAMGWYRQAPGKERELVAAISRGGSTTYADSVKGRFTISRDNAKNTVYLQMNSLKPEDTAVYYCAVGYDIVRYSYSPFYRYDYWGQGTQVTVSS | low polyreactivity
QVQLVESGGGLVQAGGSLRLSCAASGSIFQSYAMGWYRQAPGKERELVAGISSDGSTYYADSVKGRFTISRDNAKNTVYLQMNSLKPEDTAVYYCAAERWGNPTDYQFWRPYDYWGQGTQVTVSS | low polyreactivity
QVQLVESGGGLVQAGGSLRLSCAASGRIFYVNAMGWYRQAPGKERELVAGIDDGVTTYYAVSVKGRFTSSRDNAKNTVYLQMNSLKPEDTAVYYCAKETLVILIYDYWGQGTQVTVSS | low polyreactivity
QVQLVESGGGLVQAGGSLRLSCAASGITFIYYAMGWYRQAPGKERELVAAITWRGGSTYYADSVKGRFTISRDNAKYTVYLQMNSLKPEDTAVYYCNKGGISGRDYWGQGTQVTVSS | high polyreactivity
QVQLHESGGGLVQAGGSLRLSCAASGTITYAGPMGWYRQAPGKEREFVAGIGVGSNTNYADSVKGRYTIIRDNAINTVYLEKNSLKPEDTPVYYCAVGGYAPLGRPYWGQVTQVTVSS | low polyreactivity
QVQLVESGGGLVQAGGSLRLTCAASGRIFGPYVLGWYRQAPGKERELVAAISTSGTSTYYADSVKGRFTISRDNAKNTVYLQMNSLKPEDTAVYYCAKRSGARHRLMDYWGQGTQVTVSS | low polyreactivity
QVHLVESGGGLVQAGGSLRLSCAASGFTFKDYAMGWYRQAPGKHTELVAAISYSGGSTYYADSVKGRFTISRDNAKNTVYLQMYSLKPEDTAVYYCNKGYPYVAYDYWGQGTQVTVSS | high polyreactivity
QVQLVESGGGLVQAGGSLRLSCAASGIIFRYNAMGWSRQAPGKERELVATISKRGGSTRYADSVKGRFTISRDNAKNTVYLQMNSLKPEDTAVYYCAAQRPYYNGYDYWGQGTQVTVSS | high polyreactivity
QVQLVETGGGLVQAGGSLRLSCAASGFTFGSNAMGWYRQAPGKEREFVAAITYSGGGTYADSVKGRFTISRDNAKHTVDLQMNSLKPEDTAVYYCATDAYRWHYWNFGFGYWGQGTQVTVSS | high polyreactivity
QVQLVESGGGLVQAGGSLRLSCAASGLTFVGNAMGWYRQAPGKERELVASITIGTSTYYADSVKGRFTISRDNAKNTVYLQMNRLKPEDTAVYYCAAEEVFQVYGLALIYDYWGQGTQVTVSS | high polyreactivity
QVQLVESGGGLVQAGGSLRLSCAASGFIFYEYAMGWYRQSPGKERELVAGISWSGDSTYYADSVKGRFTISRDNAKNTVYLQMNRLKPEDTAVYYCAADPYYQGYDYWGQGTQVTVSS | low polyreactivity
QVQLVESGGGLVQAGGSLRLSCAASGSTFGTNAMGWYRQAPGKERELVAAITRGGNTYYADSVKGRFTISRDNAKNTVYLQMNSLKTEDTAVYYCNTYTRASRFDYWGQGTQVTVSS | high polyreactivity
PVQLVESGGGLVQAGGSLRLSCAASGSIFPSYAMGWYRQAPGKERELVATIGRGGTTNYADSVKGRFTISRDNAKNTVYLQKNSLKPEDTGVYYCNAERIWRYKYGYDYWGQGTQVTVSS | high polyreactivity
QVQLVESGGGVVQAGGSLRLTCAASVSIFASNAMGWYRQAPGKEREFVAAITWRTDRTYYADSVKGRFTISRDNAKNTVYLQMNSLKPEDTAVYYCAADLLPLYDYWGQGTQVTVSS | high polyreactivity
QVQLVESGGGLVQAGGSLRLSCAASGITFRNYAMGWYRQAPGKERELVAAITTSGSRTYYADSVKGRFTISRDNAKNTVYLQMNSLKPEDTAVYYCAAEKAPWQYYDFEYWGQGTQVTVSS | high polyreactivity
QVQLVESGGGLVQAGGSLRLSCAASGRISDVYVMGWYRQAPGKERELVAAITWSGGDTYYADSVKGRFTISRDNAKNTVYLQMNSLNPEDTAVYYCNADTGKWGGNGWYEFDYWGQGTQVTVSS | low polyreactivity

Sequence | polyreactivity (PSR sort gate)
QVQLVESGGGLDQAGGSLRLSCAASGRTINGNTMGCYRQAPGKQRELVAVIDWSGGSTYYADSVKGRFTISRDNAKNTVYLQMNSLKPEDTAVYYCNAETRDPILYGEYDYWGQGTQVTVSS | low polyreactivity
QVQLVESGGGLVQAGGSLRLSCAASGSIFRSYAMGWYRQAPGKERELVSAIRGSDGNTYYADSVKGRFTISRDNAKNTVYLQMNSLKPEDTAVYYCNARSYGYRTSRARYNYWGQGTQVTVSS | high polyreactivity
QVQLVESGGGLVQAGGSLRLSCAASGYTFPLYAMGWYRQAPGKERELVADINIGGASTYYADSVKGRFTISRDNAKNTVYLQKNSLKPEDTAVYYCAKEYYDGYFPTFDSDYWGQGTQVTVSS | low polyreactivity
QVQLVESGGGLVQAGGSLRLSCAASGFIFAYNIIGWSRHAPGTERELVADISGTGSTNYADSVKGRFTISRDNAKNTVYLQMNSLKPEDTAVYYCAAAKFDVSFWLYFWGQGTQVTVSS | low polyreactivity
QVQLVESGGGLVQAGGSLRLSCAASGRIFGLYAMGWYRQAPGKARELVAAISTRGGSTRYADSVKGRFTISRDTAKNTVYLQMNSLKPEDTAVYYCAKQPKPPPVTGYDYWGQGTQVTVSS | high polyreactivity
QVQLVESGGGLVQAGGSLRLSCAASGFTFTYYAMGWNRQEPGKERELVAAISGNGGSTYYADSVKGRFTISRDNAKNTVYLQMNRLKPEDTAVYYCNALPTSVGRWYRGDYWGQGTLVTVSS | high polyreactivity
QVQLVESGGGLVQAGGSLRLSCAASGFIFGYYTMGWYRQAPGKERELVAAISSRGGSTYYADSVKGRFTISRDNAKNTVYLQMNSLKPEDTAVYYCAKRSTYTGSWWERGYWGQGTQVTVSS | high polyreactivity
QVQLVESGGGLVQAGGSLRLSCAASGSIFIYNAMGWYRQAPGKERELVAAISSSGGSTYYADSVKGRFTISRDNAKNTVYLQMNSLKPEDTAVYYCAARTYYVRVLGGRPGMDYWGQGTQVTVSS | low polyreactivity
QVQLVESGGGLVQAGGSLRLSCAASGFIFRVNAMGWYRQAPGKERELVAAISRRGGSTYYADSVKGRFTISRDNAKNTVYLQMNSLKPEDTAVYYCAVKGASYPAYRGYDYWGQGTQVTVSS | high polyreactivity
QVQLVESGGGLVQAGGSLRLSCAASGFTFYYYAMGWYRQSPGKERELVAAISWNGGRTYYADSVKGRFTISRDTAKNNVYLQMNSLKPEDTAVYYCDTGYPIDLGREFDYWGQGIQVTVSS | high polyreactivity
QVQLVESGGGLVQAGGSLRLSCAASGSIFDWYVMGWYRQAPGKERELVAAITSGGSTNYADSVKGRFTISRDNAKNTVYLQMNSLKPEDTAVYFCAADTVSFSILYDYWGQGTQVTVSS | low polyreactivity
QVQLVESGGGLVQSGGSLRLSCAASGRTFFKYSMGWYRQAPGKEREMVATITSSGGITYADSVKGRFTISRDNAKNSVYLQMNSLKPEDTAVYYCNARVWVTHYSELNYWGQGTQVTVSS | low polyreactivity
QVQLVESGGGLVQAGGSLRLSCAASGSIFNRNAMGWYRQAPGKERELVAAISNSGARTYYADSVKGRFTISRDNAKNTVYLQMNSLKPEDTAVYYCNDVRRRSKLYNYWGQGTQVTVSS | high polyreactivity
QVQLVESGGGLVQAGGSLRLSCASSGRTFQVNAMGWYRQAPGKERELVAAISASDGSTYADSVKGRFTISRDNAKNTVYLQMNSLKPEDTAVYYCNKAAYGGHRTSEQVGWVYLYDYWGQGTQVTVSS | low polyreactivity
QVQLVESGGGLVQAGGSLRLSCAASGFTFSYNAMGWYRQAPGKERELVAAISSGGRTYYADSVKGRFTISRDNAKNTVYLQINSLKPEDTAVYYCNAEPDQYTLRSITNDEDYWGQGTQVTVSS | low polyreactivity
QVQLVESGGGLVQAGGSLRLSCAASGSTSDDNTMGWYRQAPGKERELVAAITWSGGRTSYADSVKGRFTISRDNAKNTVYLQMNSLKPEDTAVYYCAADKSGRGLDYWGQGTQVTVSS | low polyreactivity
QVQHVESGGGLVQAGGSLRLSCAASGSIFLIYAMGWYRPAPGKERELVAAITGGGTTNYADSVKGRFTISRDNAKHTVYFQMNSLKPEDTAVYYCNTLYLVYLYWTSPTPSDLFDYWGQGTQVTVSS | low polyreactivity
QVQLVESGAGLVQARGSLRLSCAPSGRNFTYYAMGWYRQAPGTETELVAAISWSGGRTYYADSVKGRFTISRDNAKNTVYLKMNSLKPEDTAVYYCAADYYAFKFGRFDYWGQGTQVTVSS | high polyreactivity
QVQLVESGGGLVQAGGSLRLSCAASGYIFPFNAMGWYRQAPGKERELVAAITNGGRTYYADSVKGRFTISRDNAKNTVYLQMNSLKPEDTAVYYCAAGSKSDMDWGQGTQVTVSS | low polyreactivity
QVQLVESGGGLVQAGGSLRLSCAASGGTFSKYAMGWYRQAPGKEREFVAAITVSGGGTYYADSVKGRFTISRDNAKNPVYLQMNSLKPEDTAVYYCAADLAWTASDYWGHGTQVTVSS | low polyreactivity
